The values below are quoted from earlier work in PMC4664823.

One may read the pKa as the pH at which an ionisable group is half protonated.

For data set [1], the target named is Asp14 (UniProt position 14, GAILADVIGTT). As to conditions: competition between substrate and protons; various preparations in earlier work.
For data set [2], the target named is Glu14 (UniProt position 14, GAILAEVIGTT). Particulars: competition between substrate and protons; various preparations in earlier work.

With E14D-EmrE (Escherichia coli; E14D), the pKa result in data set [1] was “≈5.0–6.7 and ≈5.4”. Take “EmrE (small multidrug resistance transporter), wild type (Escherichia coli)”: the pKa in data set [2] is 6.8 to 8.5 and ≈7.3.
